Test results taken from patent publication US5972599, “High affinity nucleic acid ligands of cytokines” (NeXstar Pharmaceuticals, Inc.).

Key:
IL-4 [1] = target: T1, IL-4 (Homo sapiens, UniProt P05112 P05112:25-153); test: filter; group 2 stated to bind IL-4; conditions: tags: R&D Systems
IL-4 [2] = target: T1, IL-4; test: filter; full-length; mPBS 1 mM Mg, 0.01% HSA, 37 C; conditions: tags: R&D Systems
IFN-gamma [3] = target: T2, IFN-gamma (Homo sapiens, UniProt P01579 P01579:24-161); test: filter; full-length; conditions: tags: Genzyme (Cambridge MA); Upstate Biotechnology for early SELEX rounds; chain copies: 2 inferred
Description: (§1) The determination of equilibrium dissociation constants (Kds) for RNA pools was made subsequent to rounds 5, 8, 12, and 17 to monitor the progress of each SELEX. The Kds of RNA pools for mouse IFN-gamma (Genzyme Inc., Cambridge Mass.) were also determined after rounds 8 and 17. Kds were determined for individual ligands after cloning and sequencing of RNA pools and truncations (described below). Nitrocellulose filter binding was used to determine Kds as follows: filter discs were placed into a vacuum manifold and wetted with 5 ml of mPBS buffer. ^32P-labeled-RNA was incubated with serial dilutions of IFN-gamma in binding buffer for 5–10 min at 37° C. to allow binding to occur. […] The filter discs were dried and counted in a liquid scintillation counter (Beckmann Instruments, Palo Alto Calif.). Equilibrium dissociation constants were determined by least square fitting of the data points using the Kaleidagraph™ graphics program (Synergy Software, Reading Pa.). […] Biphasic binding constants were calculated according to standard procedures. Kds were determined by least square fitting of the data points using the Kaleidagraph™ graphics program.
(§2) The Kds of individual RNAs within each group were determined by nitrocellulose filter binding as described above. The Kds were determined using either a monophasic or biphasic least squares fit of the data.

IFN-gamma [4] = target: T2, IFN-gamma; test: filter; biphasic 4.4/716 nM; conditions: tags: Genzyme (Cambridge MA); Upstate Biotechnology for early SELEX rounds; chain copies: 2 inferred
Description: as §1, §2

IFN-gamma [5] = target: T2, IFN-gamma; test: filter; biphasic 3.2/314 nM; conditions: tags: Genzyme (Cambridge MA); Upstate Biotechnology for early SELEX rounds; chain copies: 2 inferred
Description: as §1, §2

TNF-alpha [6] = target: T3, TNF-alpha (Homo sapiens, UniProt P01375 P01375:77-233); test: filter; class II; conditions: tags: Genzyme or R&D Systems; chain copies: 3 inferred
TNF-alpha [7] = target: T3, TNF-alpha; test: competition; U937 cells; conditions: tags: Genzyme or R&D Systems; chain copies: 3 inferred
Description: (§3) A receptor binding competition assay was used to determine the bioactivity of the RNA ligands. ^125I labelled hTNFα at 0.1 nM was incubated in 50 µl of binding medium (PBS with 0.5 mM Mg^++, 0.2% BSA, 0.02% sodium azide, 1 U/µl RNasin) for 15 min at 4° C. with serially diluted competitors at 10^-4 to 10^-11 M, and 1×10^4/µl U937 cells. Duplicate aliquots were subsequently removed, centrifuged through 2:1 dibutyl-phthalate:dinonyl-phthalate mixture to separate free and bound ^125I labelled hTNFα, and the radioactivity in the pellet was measured on a gamma counter. Nonspecific binding was determined by inclusion of a 200-fold molar excess of unlabeled TNF.

TNF-alpha [8] = target: T3, TNF-alpha; test: filter; 2'F version; conditions: tags: Genzyme or R&D Systems; chain copies: 3 inferred
TNF-alpha [9] = target: T3, TNF-alpha; test: competition; U937 cells; 2'F version; conditions: tags: Genzyme or R&D Systems; chain copies: 3 inferred
Description: as §3

IL-4 [10] = target: T1, IL-4; test: filter; truncate; conditions: tags: R&D Systems
TNF-alpha [11] = target: T3, TNF-alpha; test: filter; class I; conditions: tags: Genzyme or R&D Systems; chain copies: 3 inferred
TNF-alpha [12] = target: T3, TNF-alpha; test: competition; U937 cells; 3 points; conditions: tags: Genzyme or R&D Systems; chain copies: 3 inferred
Description: as §3

IFN-gamma [13] = target: T2, IFN-gamma; test: filter; biphasic 6.8/320 nM; mPBS 1 mM Mg, 0.01% HSA, 37 C; conditions: tags: Genzyme (Cambridge MA); Upstate Biotechnology for early SELEX rounds; chain copies: 2 inferred
Description: as §1, §2

IFN-gamma [14] = target: T2, IFN-gamma; test: filter; truncate; conditions: tags: Genzyme (Cambridge MA); Upstate Biotechnology for early SELEX rounds; chain copies: 2 inferred
IL-4 [15] = target: T1, IL-4; test: filter; full-length; conditions: tags: R&D Systems
IL-4 [16] = target: T1, IL-4; test: competition; 0.7 nM 125I-IL-4, H-9 cells; conditions: tags: R&D Systems
Description: Following incubation, the tubes were spun (150×g, 5 min, 4° C.) and the supernatant was aspirated. The cell pellet was resuspended in 200 μl RPMI-HSA. 100 μl aliquots were centrifuged through a cushion of an equal volume of phthalate oils (dibutyl/dioctyl, 1:1 v/v). The tube was rapidly frozen in dry ice/ethanol and the tip containing the cell pellet was cut off and placed in a vial for gamma counting.

TNF-alpha [17] = target: T3, TNF-alpha; test: filter; class II; clone 28A printed with the same sequence but no Kd; conditions: tags: Genzyme or R&D Systems; chain copies: 3 inferred
IFN-gamma [18] = target: T2, IFN-gamma; test: filter; biphasic 8.8/384 nM; conditions: tags: Genzyme (Cambridge MA); Upstate Biotechnology for early SELEX rounds; chain copies: 2 inferred
Description: as §1, §2

TNF-alpha [19] = target: T3, TNF-alpha; test: filter; DPBS; class I; conditions: tags: Genzyme or R&D Systems; chain copies: 3 inferred
TNF-alpha [20] = target: T3, TNF-alpha; test: competition; 125I-hTNFa binding to U937 cells, 4 C; conditions: tags: Genzyme or R&D Systems; chain copies: 3 inferred
Description: as §3

IFN-gamma [21] = target: T2, IFN-gamma; test: filter; biphasic 9.3/232 nM; conditions: tags: Genzyme (Cambridge MA); Upstate Biotechnology for early SELEX rounds; chain copies: 2 inferred
Description: as §1, §2

T3 sequence (P01375 77-233, one chain of several): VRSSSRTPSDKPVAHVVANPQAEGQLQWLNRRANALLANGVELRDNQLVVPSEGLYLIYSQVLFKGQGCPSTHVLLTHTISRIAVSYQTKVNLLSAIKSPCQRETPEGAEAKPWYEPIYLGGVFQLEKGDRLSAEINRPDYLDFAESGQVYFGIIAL
T2 sequence (P01579 24-161, one chain of several): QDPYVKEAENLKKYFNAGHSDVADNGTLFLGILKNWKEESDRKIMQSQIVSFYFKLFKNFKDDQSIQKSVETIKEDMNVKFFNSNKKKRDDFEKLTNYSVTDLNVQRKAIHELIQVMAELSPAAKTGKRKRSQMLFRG
T1 sequence (P05112 25-153, one chain of several): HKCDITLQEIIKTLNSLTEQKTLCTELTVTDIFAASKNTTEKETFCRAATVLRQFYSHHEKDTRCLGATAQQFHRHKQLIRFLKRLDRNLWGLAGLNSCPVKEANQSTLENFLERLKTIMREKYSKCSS

B1: IL-4 2'F/NH2-14 (ssRNA)
RNA: GGGAGACAAGAAUAAACGCUCAACAGCCAAGGGUUGGAUAGGGGGUAGGGAGCCGUAGCAGCGUUCGACAGGAGGCUCACAACAGGC
modifications: 2'-F C, 2'-NH2 U
- binding result (IL-4 [1]): binds

B2: IL-4 2'F-9 (ssRNA)
RNA: GGGAGACAAGAAUAAACGCUCAAACGGCUGUAACAAACAAGGUGGGGGGCCACACAGAGCGGGUUCGACUUCGACAGGAGGCUCACAACAGGC
modifications: 2'-F all C and U
- Kd (IL-4 [2]): 14.7 nM

B3: IFN-gamma 2'F-28 (ssRNA)
RNA: GGGAGGACGAUGCGGAGGGUUGGGAGGGGUCCUUCUUUUCGUCUGCGUGGACCGUCAGACGACUCGCCCGA
modifications: 2'-F all C and U
- Kd (IFN-gamma [3]): 35 nM

B4: IFN-gamma 2'F-1 truncate (ssRNA)
RNA: GGGAGGACGAUGCGGACACCGUUAAUCUGAGGCCCUGUCCUAUUCCUUCACGCCUCAGA
modifications: 2'-F all C and U
- Kd (IFN-gamma [4]): 4.4 nM

B5: IFN-gamma 2'F-6 (ssRNA)
RNA: GGGAGGACGAUGCGGUGGAGUUUUAAUCUUACUUCCUACUCUUGCUCCACUGGGUCAGACGACUCGCCCGA
modifications: 2'-F all C and U
- Kd (IFN-gamma [5]): 3.2 nM

B6: TNF 6A (ssRNA)
RNA: GGGAGCUCAGAAUAAACGCUCAACCACUGGCUAGGAACUCGAGUACUGGGUGGUUCGACAUGAGGCCCGGAUCCGGC
- Kd (TNF-alpha [6]): 120 nM
- Ki (TNF-alpha [7]): 9100 nM

B7: TNF 6A 2'F (ssRNA)
RNA: GGGAGCUCAGAAUAAACGCUCAACCACUGGCUAGGAACUCGAGUACUGGGUGGUUCGACAUGAGGCCCGGAUCCGGC
modifications: 2'-F all C and U
- Kd (TNF-alpha [8]): 74 nM
- Ki (TNF-alpha [9]): 8160 nM

B8: IL-4 2'F/NH2-43 (ssRNA)
RNA: GGGAGACAAGAAUAAACGCUCAACAACGCUGACCAUGGGAGGAAUGUGGGAAGGGCGCCAGCGUUCGACAGGAGGCUCACAACAGGC
modifications: 2'-F C, 2'-NH2 U
- binding result (IL-4 [1]): binds

B9: IL-4 2'NH2-29 truncate (ssRNA)
RNA: GGGACGCUCAAGAGCUGGUGAGCCACGUAUACGGCCUUAGGGGCUUGGGCG
modifications: 2'-NH2 all C and U
- Kd (IL-4 [10]): 10 nM

B10: TNF 16C (ssRNA)
RNA: GGGAGCUCAGAAUAAACGCUCAACCUGGUGGUCGUGCGGCUGUCGCCUCAAGGUUCGACAUGAGGCCCGGAUCCGGC
- Kd (TNF-alpha [11]): 200 nM
- Ki (TNF-alpha [12]): ~313 nM

B11: TNF 16C 2'F (ssRNA)
RNA: GGGAGCUCAGAAUAAACGCUCAACCUGGUGGUCGUGCGGCUGUCGCCUCAAGGUUCGACAUGAGGCCCGGAUCCGGC
modifications: 2'-F all C and U
- Kd (TNF-alpha [8]): 123 nM
- Ki (TNF-alpha [9]): 9190 nM

B12: IFN-gamma 2'F-1 (ssRNA)
RNA: GGGAGGACGAUGCGGACACCGUUAAUCUGAGGCCCUGUCCUAUUCCUUCACGCCUCAGACGACUCGCCCGA
modifications: 2'-F all C and U
- Kd (IFN-gamma [13]): 6.8 nM

B13: TNF 14C (ssRNA)
RNA: GGGAGCUCAGAAUAAACGCUCAACGGCUUGCAGGUCGCCGAAAUGACCGCACAUUCGACAUGAGGCCCGGAUCCGGC
- Kd (TNF-alpha [6]): 60 nM
- Ki (TNF-alpha [7]): 930 nM

B14: TNF 14C 2'F (ssRNA)
RNA: GGGAGCUCAGAAUAAACGCUCAACGGCUUGCAGGUCGCCGAAAUGACCGCACAUUCGACAUGAGGCCCGGAUCCGGC
modifications: 2'-F all C and U
- Kd (TNF-alpha [8]): 133 nM
- Ki (TNF-alpha [9]): 11500 nM

B15: IFN-gamma 2'F-28 truncate (ssRNA)
RNA: GGGAGGACGAUGCGGAGGGUUGGGAGGGGUCCUUCUU
modifications: 2'-F all C and U
- Kd (IFN-gamma [14]): 53 nM

B16: IL-4 2'F/NH2-9 (ssRNA)
RNA: GGGAGACAAGAAUAAACGCUCAAAGAGUGCAGGUCUGGGGCGCCACAAUUACAACGGCAAUAAUUCGACAGGAGGCUCACAACAGGC
modifications: 2'-F all C, 2'-NH2 all U
- Kd (IL-4 [15]): 3.3 nM
- IC50 (IL-4 [16]): ~40 nM

B17: IFN-gamma 2'F/NH2-3 (ssRNA)
RNA: GGGAGGACGAUGCGGUUCAGAGGGUAGGUAAGUGGGAGGAAAAAUGCCGUAUCGCCUCAGACGACUCGCCCGA
modifications: 2'-F all C, 2'-NH2 all U
- Kd (IFN-gamma [3]): 106 nM

B18: TNF 8C (ssRNA)
RNA: GGGAGCUCAGAAUAAACGCUCAAGUCCACACUUUGCCGAGCGUCCUAGUGUUCGACAUGAGGCCCGGAUCCGGC
- Kd (TNF-alpha [17]): 430 nM

B19: IL-4 2'F-9 truncate (ssRNA)
RNA: GGGAAACGGCUGUAACAAACAAGGUGGGGGGCCACACA
modifications: 2'-F all C and U
- Kd (IL-4 [10]): 18 nM

B20: TNF 23A (ssRNA)
RNA: GGGAGCUCAGAAUAAACGCUCAACCUCAUCCUCGCACGCCAUCGCCUGAACCGUUCGACAUGAGGCCCGGAUCCGGC
- Kd (TNF-alpha [11]): 52 nM
- Ki (TNF-alpha [12]): ~241 nM

B21: TNF 23A 2'F (ssRNA)
RNA: GGGAGCUCAGAAUAAACGCUCAACCUCAUCCUCGCACGCCAUCGCCUGAACCGUUCGACAUGAGGCCCGGAUCCGGC
modifications: 2'-F all C and U
- Kd (TNF-alpha [8]): 400 nM
- Ki (TNF-alpha [9]): 14700 nM

B22: IFN-gamma 2'NH2-30 truncate (ssRNA)
RNA: GGGAGGACGAUGCGGCAGGUAAUUACAUGAAGGUGGGUUAGGUA
modifications: 2'-NH2 all C and U
- Kd (IFN-gamma [14]): 11 nM

B23: IFN-gamma 2'F-27 (ssRNA)
RNA: GGGAGGACGAUGCGGAACACCCCCGGUCUGACGCUUGUUCCGAAUUCCUCCACCGUCAGACGACUCGCCCGA
modifications: 2'-F all C and U
- Kd (IFN-gamma [18]): 8.8 nM

B24: TNF 25A (ssRNA)
RNA: GGGAGCUCAGAAUAAACGCUCAAGGCCGCAUGCCCCUCCUAACAGCAUGCAACUUCGACAUGAGGCCCGGAUCCGGC
- Kd (TNF-alpha [19]): 40 nM
- Ki (TNF-alpha [20]): 21 nM

B25: IFN-gamma 2'F-16 (ssRNA)
RNA: GGGAGGACGAUGCGGCAUCCCUAGAGCAGCCAGCCGGAAAGAAGUCACGCCUGCUCAGACGACUCGCCCGA
modifications: 2'-F all C and U
- Kd (IFN-gamma [21]): 9.3 nM

B26: TNF 4A (ssRNA)
RNA: GGGAGCUCAGAAUAAACGCUCAACGCACUCGGACGGAAUCUCCGUAGGACACGUUCGACAUGAGGCCCGGAUCCGGC
- Kd (TNF-alpha [6]): 320 nM

B27: TNF 4C (ssRNA)
RNA: GGGAGCUCAGAAUAAACGCUCAACUAGGCCCACCGUCCCUUCUAACAACGUCUUCGACAUGAGGCCCGGAUCCGGC
- Kd (TNF-alpha [11]): 92 nM
- Ki (TNF-alpha [7]): 1200 nM
